According to PMC12343972 (Nature Communications, 2025):
Changes are numbered by the printed parent chain.

Experiments:
[1] = target: T1, Rad50-K1181A K1183A (Saccharomyces cerevisiae, UniProt P12753 1-1312, K1181A;K1183A); assay: EMSA
T1 sequence: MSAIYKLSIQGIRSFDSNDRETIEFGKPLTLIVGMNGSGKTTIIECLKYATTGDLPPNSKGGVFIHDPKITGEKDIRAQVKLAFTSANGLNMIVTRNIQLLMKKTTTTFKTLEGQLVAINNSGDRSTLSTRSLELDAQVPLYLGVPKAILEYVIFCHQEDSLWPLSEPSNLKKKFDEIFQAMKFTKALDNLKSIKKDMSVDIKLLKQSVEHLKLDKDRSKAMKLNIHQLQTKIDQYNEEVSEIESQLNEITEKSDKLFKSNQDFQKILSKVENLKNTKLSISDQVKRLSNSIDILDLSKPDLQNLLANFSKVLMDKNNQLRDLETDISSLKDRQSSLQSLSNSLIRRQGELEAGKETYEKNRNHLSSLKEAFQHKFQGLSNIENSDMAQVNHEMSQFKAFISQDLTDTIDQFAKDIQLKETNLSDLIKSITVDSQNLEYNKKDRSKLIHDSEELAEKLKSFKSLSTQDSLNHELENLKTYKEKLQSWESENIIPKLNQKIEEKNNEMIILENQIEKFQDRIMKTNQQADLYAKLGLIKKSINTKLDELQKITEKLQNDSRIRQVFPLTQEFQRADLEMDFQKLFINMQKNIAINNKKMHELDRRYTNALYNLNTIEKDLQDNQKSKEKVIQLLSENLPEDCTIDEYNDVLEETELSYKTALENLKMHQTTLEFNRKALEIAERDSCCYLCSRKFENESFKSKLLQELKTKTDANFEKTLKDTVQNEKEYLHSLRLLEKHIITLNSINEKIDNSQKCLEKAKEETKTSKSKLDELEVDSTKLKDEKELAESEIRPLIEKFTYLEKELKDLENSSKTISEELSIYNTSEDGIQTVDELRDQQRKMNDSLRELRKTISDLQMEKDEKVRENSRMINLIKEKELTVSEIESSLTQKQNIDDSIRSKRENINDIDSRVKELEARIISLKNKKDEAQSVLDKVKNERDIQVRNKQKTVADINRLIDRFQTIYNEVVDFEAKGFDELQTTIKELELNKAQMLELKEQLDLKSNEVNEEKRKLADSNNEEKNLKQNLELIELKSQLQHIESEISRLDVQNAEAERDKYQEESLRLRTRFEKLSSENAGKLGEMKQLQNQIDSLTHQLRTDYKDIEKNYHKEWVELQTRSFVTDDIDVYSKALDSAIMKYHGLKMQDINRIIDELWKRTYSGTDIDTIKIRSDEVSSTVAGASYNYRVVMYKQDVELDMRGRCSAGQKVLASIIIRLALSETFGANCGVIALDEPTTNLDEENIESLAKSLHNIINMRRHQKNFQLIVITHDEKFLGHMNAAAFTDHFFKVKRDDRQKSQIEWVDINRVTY

[2] = target: T2, Rad50-3KA (Saccharomyces cerevisiae, UniProt P12753 1-1312, K192A;K195A;K196A); assay: EMSA
T2 sequence: T1 sequence with K192A, K195A, K196A, A1181K, A1183K

B1: 83-mer dsDNA (EMSA) (dsDNA)
DNA 1: TTGATAAGAGGTCATTTTTGCGGATGGCTTAGAGCTTAATTGCTGAATCTGGTGCTGTAGCTCAACATGTTTTAAATATGCAA
DNA 2: TTGCATATTTAAAACATGTTGAGCTACAGCACCAGATTCAGCAATTAAGCTCTAAGCCATCCGCAAAAATGACCTCTTATCAA
Does B1 bind [1]?
Result: binds

Does B1 bind [2]?
Result: binds
